Results published in patent US20190367615A1 (BEIJING HANMI PHARM, published 2019).

Target: T1, Recombinant human PD-1-Fc (human, UniProt Q15116 25-167, limits assumed)
T1 construct: also called recombinant human PD-1-Fc protein; not shown: Fc part
Assay: competition ELISA, coated human PD-1-Fc, blocked ligand biotin-labeled PD-L1 (final 10 nM), streptavidin-HRP, OD450nm [panel PD-1/PD-L1 Blocking Activity]
Protocol: Recombinant human PD-1-Fc was coated on a 96-well high-absorbing ELISA plate with a carbonate buffer solution with pH 9.6, the coating concentration was 1 μg/mL, the coating amount was 100 μL per well, and the coating was carried at 4° C. out overnight. The plate was washed five times with PBST and blocked with 300 μL/well of PBST containing 1% BSA and incubated at 25° C. for 1 hour. The plate was washed five times with PBST. The positive control and the anti-human PD-1 antibody sample were added, 50 μL per well. […] The plate was washed five times with PBST. Then, Streptavidin-HRP (BD Pharmingen, Catalog Number 554066) 1:1000 diluted in PBST containing 1% BSA was added, 100 μL per well, incubated at 25° C. for 1 hour. The plate was washed five times with PBST. 100 μL/well of colorimetric substrate TMB was added and incubated at room temperature for 10 minutes. Color development was terminated by adding 100 μL/well of 1 M H₂SO₄. The absorbance at 450 nm was read on a microplate reader.

T1 sequence (Q15116 25-167 limits assumed): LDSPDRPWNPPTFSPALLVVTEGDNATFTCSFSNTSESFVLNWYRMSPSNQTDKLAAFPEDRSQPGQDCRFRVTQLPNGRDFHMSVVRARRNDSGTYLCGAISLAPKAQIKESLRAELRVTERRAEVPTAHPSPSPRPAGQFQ

IC50: 0.972 nM
B1: anti-human PD-1 chimeric monoclonal antibody (antibody, human IgG4 S228P, kappa, V domains shown)
VH: EVQLQESGGGLVKPGGSLKLSCAASGFTFSSYGMSWVRQTPEKRLEWVASISGGGRYTYYPDSMKGRFTISRDNAKNNLHLQMSSLRSEDTALYYCVYEYFYTMDYWGQGTSVTVSS
VL: DIVLTQSPATLSVTPGDSVSLSCRANQSISNNLHWYQQRSHESPRLLIRFASQSISGIPSRFSGSGSGTDFTLSINSVETEDFGMYFCQQSDNWPLTFGAGTKLEIKR
notes: expressed in 293F cells; also called Anti-human PD-1 Chimeric Antibody; chimeric anti-human PD-1 monoclonal antibody
